For 4 substances, proteinase A activity, ΔOD/µg protein (release of amino acids from acid-denatured hemoglobin, 90 min) (ΔOD/µg protein), intact peptide remaining after 8 h incubation in broth (reverse phase HPLC) and intact peptide remaining after 4 h incubation in broth (reverse phase HPLC) results are on record in US5691166.

For assay [1], the target named is acid-denatured hemoglobin.
Assay [2] has as its target epidermal growth factor (recombinantly synthesized molecule consisting of the first 52 amino acids of the authentic 53 amino acid EGF molecule).
For assay [3], the target named is growth hormone releasing factor (recombinantly synthesized as described in EP 206783).

“Pichia pastoris proteinase A (product of the Pichia PEP4 gene) (enzyme)” came in with a proteinase A activity, ΔOD/µg protein (release of amino acids from acid-denatured hemoglobin, 90 min) (ΔOD/µg protein) in assay [1] of 13.1.

“Saccharomyces cerevisiae proteinase A (encoded by the S. cerevisiae PEP4 gene) (from UniProt P07267) (enzyme)” had a proteinase A activity, ΔOD/µg protein (release of amino acids from acid-denatured hemoglobin, 90 min) (ΔOD/µg protein) in assay [1] of 28.1.

Consider “proteolytic activity of the cell-free broth from a one-liter fermentation of the HIS4 PEP4 P. pastoris strain G+PAO804H2”, for which the intact peptide remaining after 8 h incubation in broth (reverse phase HPLC) in assay [2] is below 10 % intact. Besides, in assay [3], the intact peptide remaining after 4 h incubation in broth (reverse phase HPLC) is below 10 % intact.

Take “proteolytic activity of the cell-free broth from the one-liter fermentation of the pep4 P. pastoris strain p13”: the intact peptide remaining after 8 h incubation in broth (reverse phase HPLC) in assay [2] is above 90 % intact. For the same substance, in assay [3], the intact peptide remaining after 4 h incubation in broth (reverse phase HPLC) was above 60 % intact.
